Assay results taken from patent publication US20240352438A1, “MEANS AND METHODS FOR DETOXIFYING OCHRATOXIN A” (DSM Austria GmbH, priority 2021, published 2024).
Positions count from the first letter of the chain named.

B1: 119 (protein)
chain: MTTRTRILTAFLSLLAANACAADAAPAAPHTVVLRAARMFDGASGKLVDHPQLTIVGNKIVRIAQGDKAEVPAGAEVVDLGDATLLPGFIDAHVHLSGQSSDNWYGDFFDNMMRFPAEQALRGAYYARITLEAGFTSVRDVGSTDWVALGLRNAIDAGKVPGPRMLVSNYAVGSTGGHADQDPIPPHKLPLAGPLQGVCNGPEECRAAVRYQIKYGANVIKFMPSGGVLSLSDPVDAPELSQDEMNAVIGESHAWGRKVAAHAHGDKAAKMAVAAGVDSIEHGSFIEDDTLRAMKAKNVYLVPTISAIAHVEEKIGTFPPVIAEKGRAAAAHLRQTFRHAVQIGVPIALGTDAGVGAHGSNAREFRYMVENGLTPAQALLAGTANAARLLGTFDRVGTLEAGKLADVVAVPGNPIADITVTERPLFVMKDGVVVRRDAVR
modifications: exemplary polypeptide
B2: 120 (protein)
chain: B1 chain with R122Y, Y126W
modifications: exemplary polypeptide
B3: 121 (protein)
chain: B1 chain with F109Y, R122Y
modifications: exemplary polypeptide
B4: 122 (protein)
chain: B1 chain with R122Y, Q242P
modifications: exemplary polypeptide
B5: 124 (protein)
chain: B1 chain with R122Y, T317Y
modifications: exemplary polypeptide
B6: 125 (protein)
chain: B1 chain with R122Y, F318Y
modifications: exemplary polypeptide
B7: 127 (protein)
chain: B1 chain with R122Y, K258Y, G391R
modifications: exemplary polypeptide
B8: 128 (protein)
chain: B1 chain with A36C, L85C, R122Y
modifications: exemplary polypeptide
B9: 136 (protein)
chain: B1 chain with S97D, R122Y
modifications: exemplary polypeptide
B10: 137 (protein)
chain: B1 chain with S97N, R122Y
modifications: exemplary polypeptide
B11: 138 (protein)
chain: B1 chain with S97P, R122Y
modifications: exemplary polypeptide
B12: 139 (protein)
chain: B1 chain with S97T, R122Y
modifications: exemplary polypeptide
B13: 140 (protein)
chain: B1 chain with S97V, R122Y
modifications: exemplary polypeptide
B14: 141 (protein)
chain: B1 chain with R122Y, G142A
modifications: exemplary polypeptide
B15: 143 (protein)
chain: B1 chain with R122Y, T144D
modifications: exemplary polypeptide
B16: 144 (protein)
chain: B1 chain with R122Y, T144E
modifications: exemplary polypeptide
B17: 145 (protein)
chain: B1 chain with R122Y, T144P
modifications: exemplary polypeptide
B18: 146 (protein)
chain: B1 chain with R122Y, T144R
modifications: exemplary polypeptide
B19: 148 (protein)
chain: B1 chain with R122Y, A179S
modifications: exemplary polypeptide
B20: 150 (protein)
chain: B1 chain with R122Y, A171P, I184V
modifications: exemplary polypeptide
B21: 151 (protein)
chain: B1 chain with R122Y, A171P, I308A
modifications: exemplary polypeptide
B22: 152 (protein)
chain: B1 chain with R122Y, A171P, I308V
modifications: exemplary polypeptide
B23: 153 (protein)
chain: B1 chain with R122Y, A171P, F318Y
modifications: exemplary polypeptide
B24: 154 (protein)
chain: B1 chain with R122Y, A171P, G354A
modifications: exemplary polypeptide
B25: 155 (protein)
chain: B1 chain with R122Y, I184V, I308A
modifications: exemplary polypeptide

Assay: OTA detoxification activity assay (specific activity, fluorescence reduction ex/em 390/450 nm)
Format: biochemical
Conditions: pH 6.0; SEQ ID NO: 1 = 100%
In short: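 Recombinant enzyme preparation with 200 ng/mL OTA in 100 mM sodium phosphate, at pH 6.0 and pH 7.5, 37° C. Degradation followed as the fall in fluorescence at ex/em 390/450 nm. Specific activity taken from the initial linear slope; one unit degrades 1 μmol OTA per min at a starting OTA of […].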

Row | Molecule | Specific OTA detoxification activities in % compared to the enzyme of SEQ ID NO: 1, pH 6.0 [%]
1 | B1 | 107
2 | B2 | 85
3 | B3 | 84
4 | B4 | 59
5 | B5 | 87
6 | B6 | 58
7 | B7 | 78
8 | B8 | 67
9 | B9 | 64
10 | B10 | 86
11 | B11 | 46
12 | B12 | 141
13 | B13 | 118
14 | B14 | 138
15 | B15 | 86
16 | B16 | 78
17 | B17 | 101
18 | B18 | 172
19 | B19 | 40
20 | B20 | 89
21 | B21 | 75
22 | B22 | 65
23 | B23 | 72
24 | B24 | 38
25 | B25 | 116

Same assay, conditions: pH 7.5; SEQ ID NO: 1 = 100%

Row | Molecule | Specific OTA detoxification activities in % compared to the enzyme of SEQ ID NO: 1, pH 7.5 [%]
26 | B1 | 101
27 | B2 | 90
28 | B3 | 78
29 | B4 | 80
30 | B5 | 78
31 | B6 | 94
32 | B7 | 82
33 | B8 | 73
34 | B9 | 48
35 | B10 | 93
36 | B11 | 29
37 | B12 | 88
38 | B13 | 120
39 | B14 | 123
40 | B15 | 84
41 | B16 | 95
42 | B17 | 90
43 | B18 | 112
44 | B19 | 19
45 | B20 | 62
46 | B21 | 86
47 | B22 | 74
48 | B23 | 77
49 | B24 | 38
50 | B25 | 124

Assay: Enzymatic activity comparison: activity remaining after 65° C. for 10 min at pH 6.0, relative to SEQ ID NO: 1
Format: physicochemical
Conditions: not given
Procedure: To compare the temperature behavior and thermostability of selected enzymes to one another, enzyme was incubated at 65° C. for 10 min at pH 6.0. The enzymatic activity remaining after incubation was compared to the remaining activity of the enzyme of SEQ ID NO: 1 after incubation, the latter being set to 100%, see Table 16.

Row | Molecule | Enzymatic activity remaining after incubation, compared to SEQ ID NO: 1 (set to 100%) [%]
51 | B1 | 45
52 | B2 | 23
53 | B3 | 40
54 | B4 | 40
55 | B5 | 42
56 | B6 | 100
57 | B7 | 64
58 | B8 | 84
59 | B9 | 36
60 | B10 | 48
61 | B11 | 27
62 | B12 | 40
63 | B13 | 34
64 | B14 | 55
65 | B15 | 21
66 | B16 | 28
67 | B17 | 47
68 | B18 | 45
69 | B19 | 35
70 | B20 | 22
71 | B21 | 30
72 | B22 | 38
73 | B23 | 34
74 | B24 | 32
75 | B25 | 35
